B1: glmS ribozyme (parent)
chain: AUAAAAGCGCCAGAACUACAGAAAUGUAGUUGACGAGGAGGAGGUUUAUCGAAUUUUCGGCGGAUGCCUCCAAA

± gives the standard error. For part of these data: Variants at the floor of the assay were thinned out. Bounds are passed on as bounds.

What all share (conditions): with glucosamine-6-phosphate
Variants of B1 are the subject of series [1]. The series can be described thus: kcat; higher = faster cleavage; RNA array. The essentials: (§1)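 Glucosamine-6-phosphate in HEPES/KCl/Mg(OAc)2 buffer, at 40 μM to 10 mM, was flowed over barcoded ribozyme variants transcribed in situ by E. coli RNA polymerase on sequenced MiSeq chips. Tracking was through a hybridised Cy3 probe at 37 °C. kobs, kcat and KM came from exponential decay fits and weighted Michaelis–Menten fits of normalised per-tile medians.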

Series [2] covers variants of B1. The series can be described thus: KM; higher = weaker cofactor use; RNA array. Summed up: as §1
Series [3] covers variants of B1. The series can be described thus: self-cleavage kobs at 160 uM GlcN6P; higher = faster cleavage; RNA array. Summed up: as §1
In series [4] the parent is B1. Put plainly: self-cleavage kobs at 640 uM GlcN6P; higher = faster cleavage; RNA array. Summed up: as §1
Series [5] covers variants of B1. The series can be described thus: self-cleavage kobs at 2500 uM GlcN6P; higher = faster cleavage; RNA array. The essentials: as §1
The variants in series [6] derive from B1. The series can be described thus: self-cleavage kobs at 10000 uM GlcN6P; higher = faster cleavage; RNA array. Summed up: as §1
Series [7] covers variants of B1. The series can be described thus: self-cleavage kobs at 40 uM GlcN6P; higher = faster cleavage; RNA array. Summed up:
as §1

Consider 16 variants from the supplement of paper PMC7125110.

Regarding U47G A48U, the kcat with glucosamine-6-phosphate [1] came out at 0.000199 ± 1.8e-05 s⁻¹. Further, the KM with glucosamine-6-phosphate [2] came out at 905 ± 230 µM. For the same variant, the “self-cleavage kobs at 160 uM GlcN6P” value with glucosamine-6-phosphate [3] worked out at 3.01e-05 ± 1.4e-05 s⁻¹. Moreover, the “self-cleavage kobs at 640 uM GlcN6P” value in the series with glucosamine-6-phosphate [4] is 8.89e-05 ± 1.5e-05 s⁻¹. Further, the “self-cleavage kobs at 2500 uM GlcN6P” value in the series with glucosamine-6-phosphate [5] was 0.000128 ± 2e-05 s⁻¹. Further, in the series with glucosamine-6-phosphate [6], the “self-cleavage kobs at 10000 uM GlcN6P” value was 0.000196 ± 2.4e-05 s⁻¹.
Regarding U47G A48G, the kcat with glucosamine-6-phosphate [1] is 8.61e-05 ± 8.6e-06 s⁻¹. For the same variant, the “self-cleavage kobs at 640 uM GlcN6P” value with glucosamine-6-phosphate [4] stood at 4.31e-05 ± 1.6e-05 s⁻¹. Moreover, the “self-cleavage kobs at 2500 uM GlcN6P” value in the series with glucosamine-6-phosphate [5] was determined as 8.59e-05 ± 1.7e-05 s⁻¹. In addition, the “self-cleavage kobs at 10000 uM GlcN6P” value with glucosamine-6-phosphate [6] is 7.67e-05 ± 1.3e-05 s⁻¹.
Regarding G40C U47A, the kcat in the series with glucosamine-6-phosphate [1] was 0.00182 ± 0.0003 s⁻¹. Besides, the KM with glucosamine-6-phosphate [2] is 1170 ± 310 µM. Further, the “self-cleavage kobs at 40 uM GlcN6P” value in the series with glucosamine-6-phosphate [7] was found to be 7.98e-05 ± 1.1e-05 s⁻¹. For the same variant, the “self-cleavage kobs at 160 uM GlcN6P” value in the series with glucosamine-6-phosphate [3] is 0.000192 ± 3.4e-05 s⁻¹. In addition, the “self-cleavage kobs at 640 uM GlcN6P” value with glucosamine-6-phosphate [4] came to 0.000511 ± 0.0001 s⁻¹. Moreover, the “self-cleavage kobs at 2500 uM GlcN6P” value in the series with glucosamine-6-phosphate [5] was found to be 0.00128 ± 0.00024 s⁻¹. The “self-cleavage kobs at 10000 uM GlcN6P” value with glucosamine-6-phosphate [6] came out at 0.0017 ± 0.00019 s⁻¹.
For the variant C11A G59A, the kcat in the series with glucosamine-6-phosphate [1] is 0.000719 ± 4.8e-05 s⁻¹. Further, the KM with glucosamine-6-phosphate [2] came out at 4140 ± 480 µM. The “self-cleavage kobs at 640 uM GlcN6P” value with glucosamine-6-phosphate [4] was 9.86e-05 ± 1.6e-05 s⁻¹. For the same variant, the “self-cleavage kobs at 2500 uM GlcN6P” value with glucosamine-6-phosphate [5] amounted to 0.000248 ± 5e-05 s⁻¹. The “self-cleavage kobs at 10000 uM GlcN6P” value with glucosamine-6-phosphate [6] was found to be 0.000516 ± 5.9e-05 s⁻¹.
Consider U56A C58U, for which the kcat with glucosamine-6-phosphate [1] came to 0.00027 ± 2.5e-05 s⁻¹. In addition, in the series with glucosamine-6-phosphate [2], the KM amounted to 3350 ± 650 µM. Moreover, the “self-cleavage kobs at 640 uM GlcN6P” value with glucosamine-6-phosphate [4] worked out at 5.03e-05 ± 1.6e-05 s⁻¹. Also, the “self-cleavage kobs at 2500 uM GlcN6P” value in the series with glucosamine-6-phosphate [5] is 0.000108 ± 1.9e-05 s⁻¹. Moreover, in the series with glucosamine-6-phosphate [6], the “self-cleavage kobs at 10000 uM GlcN6P” value was 0.000208 ± 3.2e-05 s⁻¹.
Take C11G A15U U54A C70A: the kcat with glucosamine-6-phosphate [1] came to 3.62e-05 ± 1.5e-05 s⁻¹. Besides, the “self-cleavage kobs at 640 uM GlcN6P” value with glucosamine-6-phosphate [4] is 6.28e-05 ± 2.7e-05 s⁻¹.
Turning to A6U C67U, the turnover number (kcat) with glucosamine-6-phosphate [1] stood at 8.67e-05 ± 4.7e-06 s⁻¹. In the series with glucosamine-6-phosphate [2], the KM worked out at 565 ± 160 µM. Moreover, the “self-cleavage kobs at 640 uM GlcN6P” value with glucosamine-6-phosphate [4] was determined as 4.42e-05 ± 8.6e-06 s⁻¹. In addition, in the series with glucosamine-6-phosphate [5], the “self-cleavage kobs at 2500 uM GlcN6P” value was 8.14e-05 ± 1.1e-05 s⁻¹. The “self-cleavage kobs at 10000 uM GlcN6P” value with glucosamine-6-phosphate [6] came out at 8.01e-05 ± 6.2e-06 s⁻¹.
As to G40U U65A, the kcat with glucosamine-6-phosphate [1] stood at 0.000363 ± 4.2e-05 s⁻¹. The Michaelis constant (KM) in the series with glucosamine-6-phosphate [2] came to 735 ± 170 µM. Also, in the series with glucosamine-6-phosphate [3], the “self-cleavage kobs at 160 uM GlcN6P” value was 6.26e-05 ± 1.5e-05 s⁻¹. Moreover, in the series with glucosamine-6-phosphate [4], the “self-cleavage kobs at 640 uM GlcN6P” value was found to be 0.000191 ± 3.7e-05 s⁻¹. Moreover, the “self-cleavage kobs at 2500 uM GlcN6P” value in the series with glucosamine-6-phosphate [5] amounted to 0.000235 ± 6.9e-05 s⁻¹. Besides, the “self-cleavage kobs at 10000 uM GlcN6P” value with glucosamine-6-phosphate [6] came out at 0.000352 ± 7e-05 s⁻¹.
As for A33U A39U, in the series with glucosamine-6-phosphate [1], the kcat turned out to be 5.86e-05 ± 3e-06 s⁻¹. Further, the KM with glucosamine-6-phosphate [2] is 4820 ± 620 µM. The “self-cleavage kobs at 160 uM GlcN6P” value with glucosamine-6-phosphate [3] is less than 1e-05 s⁻¹. The “self-cleavage kobs at 2500 uM GlcN6P” value with glucosamine-6-phosphate [5] is 2.03e-05 ± 6.2e-06 s⁻¹. Further, the “self-cleavage kobs at 10000 uM GlcN6P” value in the series with glucosamine-6-phosphate [6] stood at 3.95e-05 ± 5.5e-06 s⁻¹.
Regarding U30C U56C, in the series with glucosamine-6-phosphate [1], the kcat stood at 0.000116 ± 7.6e-06 s⁻¹. The KM in the series with glucosamine-6-phosphate [2] amounted to 4270 ± 610 µM. For the same variant, the “self-cleavage kobs at 2500 uM GlcN6P” value in the series with glucosamine-6-phosphate [5] was found to be 4.38e-05 ± 4.8e-06 s⁻¹. In addition, in the series with glucosamine-6-phosphate [6], the “self-cleavage kobs at 10000 uM GlcN6P” value was found to be 8.1e-05 ± 7e-06 s⁻¹.
On to A14G A15G C50U C68U, for which, in the series with glucosamine-6-phosphate [1], the kcat came to 5.28e-05 ± 7.8e-06 s⁻¹. Moreover, the “self-cleavage kobs at 640 uM GlcN6P” value with glucosamine-6-phosphate [4] turned out to be 7.36e-05 ± 2e-05 s⁻¹. The “self-cleavage kobs at 2500 uM GlcN6P” value with glucosamine-6-phosphate [5] came to 4.92e-05 ± 1.8e-05 s⁻¹. In addition, the “self-cleavage kobs at 10000 uM GlcN6P” value with glucosamine-6-phosphate [6] amounted to 4.76e-05 ± 1.2e-05 s⁻¹.
Regarding G35C C70G, in the series with glucosamine-6-phosphate [1], the kcat was less than 1e-05 s⁻¹. Further, the “self-cleavage kobs at 2500 uM GlcN6P” value with glucosamine-6-phosphate [5] is less than 1e-05 s⁻¹.
On to A64C C71U, for which the kcat with glucosamine-6-phosphate [1] was 0.00012 ± 8.4e-06 s⁻¹. Besides, the KM with glucosamine-6-phosphate [2] came out at 2400 ± 500 µM. In addition, the “self-cleavage kobs at 2500 uM GlcN6P” value with glucosamine-6-phosphate [5] came out at 6.58e-05 ± 1.3e-05 s⁻¹. Also, the “self-cleavage kobs at 10000 uM GlcN6P” value with glucosamine-6-phosphate [6] is 9.59e-05 ± 1.1e-05 s⁻¹.
As to G13C U55C, the catalytic constant (kcat) in the series with glucosamine-6-phosphate [1] stood at 9.82e-05 ± 8.2e-06 s⁻¹. Besides, the KM in the series with glucosamine-6-phosphate [2] amounted to 1500 ± 410 µM. Also, the “self-cleavage kobs at 40 uM GlcN6P” value with glucosamine-6-phosphate [7] is less than 1e-05 s⁻¹. Further, the “self-cleavage kobs at 640 uM GlcN6P” value with glucosamine-6-phosphate [4] worked out at 3.6e-05 ± 1.6e-05 s⁻¹. In addition, in the series with glucosamine-6-phosphate [5], the “self-cleavage kobs at 2500 uM GlcN6P” value was 5.66e-05 ± 1.3e-05 s⁻¹. Besides, in the series with glucosamine-6-phosphate [6], the “self-cleavage kobs at 10000 uM GlcN6P” value worked out at 8.8e-05 ± 1.5e-05 s⁻¹.
For G32A U55C, the kcat in the series with glucosamine-6-phosphate [1] is 0.00196 ± 0.00036 s⁻¹. The KM with glucosamine-6-phosphate [2] is 2790 ± 760 µM. Also, the “self-cleavage kobs at 160 uM GlcN6P” value in the series with glucosamine-6-phosphate [3] was found to be 9.47e-05 ± 1.6e-05 s⁻¹. Besides, in the series with glucosamine-6-phosphate [4], the “self-cleavage kobs at 640 uM GlcN6P” value was 0.000403 ± 4.8e-05 s⁻¹. Besides, in the series with glucosamine-6-phosphate [5], the “self-cleavage kobs at 2500 uM GlcN6P” value is 0.00122 ± 0.0002 s⁻¹. Besides, in the series with glucosamine-6-phosphate [6], the “self-cleavage kobs at 10000 uM GlcN6P” value turned out to be 0.00143 ± 0.00018 s⁻¹.
On to A15U A53C, for which the kcat with glucosamine-6-phosphate [1] amounted to 0.000734 ± 0.00026 s⁻¹. The “self-cleavage kobs at 160 uM GlcN6P” value with glucosamine-6-phosphate [3] was determined as 0.00014 ± 4.7e-05 s⁻¹. Besides, in the series with glucosamine-6-phosphate [4], the “self-cleavage kobs at 640 uM GlcN6P” value turned out to be 0.000643 ± 0.00016 s⁻¹. Moreover, in the series with glucosamine-6-phosphate [6], the “self-cleavage kobs at 10000 uM GlcN6P” value was determined as 0.000636 ± 0.00012 s⁻¹.

As usually defined, the kcat is the maximal rate divided by the concentration of active sites. For orientation: KM means the concentration of substrate that gives half-maximal velocity.
